Test results as given in US20200199216A1 (KINDRED BIOSCIENCES, published 2020).
Numbering of substitutions follows the chain as printed.

Key:
[1] = target: T1, canine IL17A (as used at 1 nM in the H1080 cell assay) (canine); test: cell-based or functional assay
T1 chain: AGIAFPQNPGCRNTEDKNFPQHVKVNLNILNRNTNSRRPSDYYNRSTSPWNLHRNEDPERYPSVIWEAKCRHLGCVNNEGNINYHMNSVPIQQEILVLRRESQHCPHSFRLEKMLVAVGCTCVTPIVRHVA

canine IL17A-huFc [2] = target: T2, canine IL17A-huFc (canine); test: BLI (Octet); canine IL17A-huFc captured on anti-human Fc sensors, antibody at 10 µg/mL
T2 construct: also called canine IL17A-hFc; not shown: human Fc on the C-terminal
T2 chain: T1 chain
Experimental: Briefly, antibody concentrations were measured by protein A assay using Biosensor Octet (Forte Bio). Canine IL17A-huFc was captured to anti-human Fc bound biosensors. The association of anti-IL17A antibody from clones A, C, D, and E to the canine IL17A-huFc was monitored for 90 seconds. Dissociation was monitored for 600 seconds. A buffer only blank curve was subtracted to correct for any drift. The data were fit to a 1:1 binding model using ForteBio™ data analysis software to determine the kon, koff, and the Kd. The buffer for dilutions and all binding steps was: 20 mM phosphate, 150 mM NaCl, pH 7.2.

canine IL17A-huFc [3] = target: T2, canine IL17A-huFc; test: ELISA; canine IL17A-huFc captured on anti-human Fc, detection goat anti-mouse Fc-HRP
Experimental: Binding affinity of monoclonal antibodies A, B, C, D, and E to canine IL17A-huFc polypeptide was analyzed by ELISA. In the binding ELISA performed, the wells were coated with anti-human Fc antibody. Canine IL17A-huFc protein was then added to the wells. Antibody purified from each of the five hybridoma clones was added to the wells at various concentrations (19.35 nM, 6.45 nM, 2.15 nM, 0.75 nM, 0.24 nM, 0.08 nM, 0.03 nM, and 0 nM). Goat anti-mouse Fc-HRP was added and color was developed. […] Table 3 below provides the EC50 values associated with the binding ELISA for each of the clones.

canine IL17A-polyHis = target: T3, canine IL17A-polyHis (canine, biotinylated (EZ-Link NHS-LC-biotin) in the biosensor assays); test: BLI (Octet); biotinylated canine IL17A-polyHis on streptavidin sensors, antibody 0-220 nM, 1:1 model
T3 construct: also called biotinylated canine IL17A-polyHis; not shown: poly-His tag on the C-terminal
T3 chain: T1 chain
Experimental: The binding analysis was performed using a Biosensor Octet as follows. Briefly, canine IL17A-polyHis, which was expressed and purified from CHO-S cells, was biotinylated using EZ-Link NHS-LC-biotin (Catalog No. 21336, Thermo Scientific). Free, unreacted biotin was removed from biotinylated IL17A by dialysis. Biotinylated canine IL17A was captured on streptavidin sensor tips (Catalog No. 18-509, ForteBio). The association of different concentrations (0 nM, 18.33 nM, 45.87 nM, 110 nM, 220 nM) of hybridoma Clone C or caninized Clone C antibody to canine IL17A was monitored for 90 seconds. Dissociation was monitored for 600 seconds. A buffer only blank curve was subtracted to correct for any drift. The data were fit to a 1:1 binding model using ForteBio™ data analysis software to determine the kₒₙ, koff, and the Kd. The buffer for dilutions and all binding steps was: 20 mM phosphate, 150 mM NaCl, pH 7.2.

[4] = target: T4, canine IL17A-hFc-polyHis Mutant 3 (Q103R); test: Western blot of 3-fold concentrated 293 supernatants, 25 µL per lane, SDS-PAGE with or without DTT, PVDF, probed with Clone C
T4 IL17A-hFc-polyHis fusion chain: T1 chain with Q103R
Experimental: (§1) Plasmid constructs containing nucleotide sequences encoding each of the canine IL17A-hFC-polyHis mutants were transiently transfected into 293 cells and the supernatants concentrated 3-fold. Each mutant was separated by SDS-PAGE (25 μL per lane) in the presence or absence of DTT and the proteins transferred to a PVDF membrane. The blot was probed using either Clone C antibody or anti-human IgG Fc (control).

[5] = target: T5, canine IL17A-hFc-polyHis Mutant 5 (C-terminal deletion of amino acids 126-131); test: as above
T5 IL17A-hFc-polyHis fusion chain: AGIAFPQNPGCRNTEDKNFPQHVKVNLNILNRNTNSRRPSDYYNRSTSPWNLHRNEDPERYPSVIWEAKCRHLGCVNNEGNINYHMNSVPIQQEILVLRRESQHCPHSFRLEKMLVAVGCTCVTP
Experimental: as §1

[6] = target: T6, canine IL17A-hFc-polyHis Mutant 1 (R71L, L73W, I82T) (canine); test: as above
T6 construct: Tested as 3-fold concentrated supernatant of transfected 293 cells; not shown: human Fc; poly-His tag
T6 chain: T1 chain with R71L, L73W, I82T
Experimental: as §1

equine IL17A-polyHis = target: T7, equine IL17A-polyHis (equine, biotinylated in the biosensor assay); test: BLI (Octet); biotinylated equine IL17A-polyHis on streptavidin sensors, antibody 20 µg/mL; BLI (Octet), biotinylated equine IL17A-polyHis on streptavidin sensor, antibody 20 µg/mL
T7 construct: not shown: poly-His tag on the C-terminal
T7 chain: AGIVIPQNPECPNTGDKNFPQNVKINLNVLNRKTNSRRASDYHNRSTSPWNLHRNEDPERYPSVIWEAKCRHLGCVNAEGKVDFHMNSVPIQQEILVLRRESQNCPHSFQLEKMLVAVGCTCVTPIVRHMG
Experimental: The binding analysis was performed using a Biosensor Octet as follows. Both feline IL17A-polyHis and equine IL17A-polyHis were biotinylated and immobilized to streptavidin biosensors. The association of monoclonal antibody Clones A, C, D, and E (20 μg/mL) to either feline or […] IL17A-polyHis was monitored for 90 seconds. Dissociation was monitored for 600 seconds. A buffer only blank curve was subtracted to correct for any drift. The data were fit to a 1:1 binding model using ForteBio™ data analysis software to determine the kₒₙ, koff, and the Kd. The buffer for dilutions and all binding steps was: 20 mM phosphate, 150 mM NaCl, pH 7.2. […] Weak binding signals of Clone A to feline IL17A and Clone C to feline IL17A were observed.

EC50 (ng/mL), H1080 Cell Functional Assay (IL6 secretion) [1]: 7 ng/mL | Kd (canine IL17A-huFc [2]): < 10 nM | EC50 (canine IL17A-huFc [3]): 0.2 ng/mL | Kd (canine IL17A-polyHis): 7.9 nM | binding result [4]: binds | binding result [5]: binds | binding result [6]: binds | Kd (equine IL17A-polyHis): 0.13 nM
B1: mouse monoclonal antibody Clone C (antibody, mouse IgG1, V domains shown)
VH: EVQLVESGGGLVQPGGSLKLSCAASGFTFSSYGMSWVRQTPDKRLELVAIINSNGGSTYYPDSVKGRFTISRDNDKNSLYLQMSSLKSEDTAMYYCVRCHYDYERVFDYWGQGTTLTVSS
VL: DIQMTQSSSYLSVSLGGRVTITCKANDHINNWLAWYQQKPGNAPRLLISGSTSLETGVPSRFSGSGSGKDYTLSITSLQTEDVATYYCQQYWSTPFTFGSGTKLEIK
notes: Hybridoma antibody; also called hybridoma Clone C
